Data reported in patent publication US20250042961A1, “P53 PEPTIDOMIMETIC MACROCYCLES” (MERCK SHARP & DOHME LLC, priority 2021, published 2025).
Bridges are numbered along the chain shown (N, C = ends). [ ]: non-standard residue; d: D form. dPhe(4-CF3) = N[C@H](Cc1ccc(C(F)(F)F)cc1)C(=O)O; dTrp(6-F) = N[C@H](Cc1c[nH]c2cc(F)ccc12)C(=O)O; R5 = C=CCCC[C@@](C)(N)C(=O)O; FAM = carboxyfluorescein

T1: MDM4 protein (human), O15151
T1 chain: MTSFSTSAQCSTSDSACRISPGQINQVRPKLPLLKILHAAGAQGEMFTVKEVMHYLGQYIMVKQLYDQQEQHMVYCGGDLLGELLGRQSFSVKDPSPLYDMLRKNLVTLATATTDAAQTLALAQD


Legend:
[1] = biological target: Purified MDM2 (1-125) protein (human MDM2 1-125 sequence comprising a modified TEV cleavage site, pNIC-GST fusion) (human), Q00987; test: competitive fluorescence anisotropy (FP) against FAM-labeled 12/1 peptide on MDM2 (1-125); apparent Kd
Purified MDM2 (1-125) protein (human MDM2 1-125 sequence comprising a modified TEV cleavage site, pNIC-GST fusion) (human), Q00987, sequence (Q00987 1-125 limits assumed): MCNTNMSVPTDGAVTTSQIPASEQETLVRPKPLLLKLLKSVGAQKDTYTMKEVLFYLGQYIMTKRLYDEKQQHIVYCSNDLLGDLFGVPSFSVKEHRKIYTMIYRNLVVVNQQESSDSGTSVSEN

[2] = biological target: MDM2 (in HCT116 cells) (human), Q00987; test: cell-based or functional assay
[3] = biological target: T1, MDM4 protein (human), O15151; test: direct fluorescence anisotropy titration of MDM4 against 50 nM FAM-labeled peptide; apparent Kd, 1:1 model

| Kd [1] | p53 activity EC50 (µM) (0% FBS, 4 h) [2] | p53 activity EC50 (µM) (10% FBS, 16 h) [2] | Kd [3] | Binder |
| --- | --- | --- | --- | --- |
| 3.2 nM | 0.61 µM | 0.28 µM | – | Ac-[dT][dA][dTrp(6-F)][dY][dA][R5][dPhe(4-CF3)][dE][dQ][R5][dL][dS][dA][dA][dA][dA][dA][dA]-NH2 (staple 6-10; also: mixture of cis-trans isomers) [Acetyl-^DPMI-δ-(6-10 olefin staple) (D-K9D-Q, D-R12D-S, 6x(D-A) polypeptide tail)-NH2] |
| 21.7 nM | 50 µM | > 50 µM | – | Ac-[dT][dA][dTrp(6-F)][dY][dA][R5][dPhe(4-CF3)][dE][dQ][R5][dL][dS][dA][dA][dA][dA][dA][dA][dA][dA][dA]-NH2 (staple 6-10; also: mixture of cis-trans isomers) [Acetyl-^DPMI-δ-(6-10 olefin staple) (D-K9D-Q, D-R12D-S, 9x(D-A) polypeptide tail)-NH2] |
| – | – | – | 4 nM | {FAM}-RFMDYWEGL-NH2 (also: places C-terminal amide at E7) [carboxyfluorescein (FAM)-labeled 12/1 peptide 13 (FAM-…-NH2)] |
